# Data as given in patent US12552837B2, “Bicyclic peptide ligands with detectable moieties and uses thereof” (BicycleRD Limited, priority 2017, dated 2026).
# *1 amine or outer side, *2 acyl side, *3 side chain or, on linkers, in order; H or OH if unused. Where a SMILES comes first, the peptide text is derived from it. Bridges are numbered along the chain shown (N, C = ends). [ ]: non-standard residue; d: D form. The star is where a group is joined. DOTA = O=C(O)CN1CCN(CC(=O)O)CCN(CC(=O)*)CCN(CC(=O)O)CC1; 1Nal = N[C@@H](Cc1cccc2ccccc12)C(=O)O; TBMB = c1c(C[*:1])cc(C[*:3])cc1C[*:2]; Tle = CC(C)(C)[C@H](N)C(=O)O
# Tested on: xenograft tumor
# Experiment: μPET imaging with 68Ga-labelled Bicycle peptides in xenograft mice
# Type: in vivo
# Settings: 150 pmoles
# Procedure: General method for μPET imaging: the mice were anaesthetized (2% sevoflurane, Abbott), placed into the small animal PET scanner (Inveon PET, Siemens) and injected with 68Ga-labeled Bicycle peptides. A 20 min transmission scan, a 50 min dynamic scan and a static scan from 100 to 120 min p.i. were performed. Images were reconstructed iteratively using the space alternating generalized expectation maximization method (SAGE, 16 subsets, 4 iterations) applying median root prior correction and were converted to standardized uptake value (SUV) images. Quantitation was done using a ROI (region of interest) technique and expressed as SUVmean.
# General method for radiolabeling with Ga-68: ^68Ga (half-life 68 min; β^+ 89%; Eβ+max. 1.9 MeV) was obtained from a in house ^68Ge/^68Ga generator based on pyrogallol resin support. 1 GBq ^68Ga was eluted using 5.5 M HCl. The activity was trapped on a small anion-exchanger cartridge (AG1X8, Biorad, Richmond, CA, USA) as [^68Ga]GaCl4^−. The radiogallium was eluted from the cartridge in a final volume of 300 μL ultrapure water (Merck, Darmstadt, Germany) as [^68Ga]GaCl3.
# 1 nmol Bicycle peptide in 1 μL DMSO was added to a mixture of 50 μL 0.05 M HEPES, 0.1% Tween-20, and 80 μL [^68Ga]Ga^3+ eluate (˜200 MBq). The pH of the labelling solution was adjusted to 4.2 using 30% NaOH. The reaction mixture was incubated at 98° C. for 10 minutes. The radiochemical yield (RCY) was determined using reversed-phase high performance liquid chromatography (RP-HPLC; Chromolith RP-18e, 100×4.6 mm; Merck, Darmstadt, Germany). The analytical HPLC run was performed using a linear A-B gradient (0% B to 100% B in 6 min) at a flow rate of 4 mL/min. Solvent A consisted of 0.1% aqueous TFA and solvent B was 0.1% TFA in CH3CN.
# For μPET imaging, the labelling reaction mixture was diluted in injection buffer (0.25 M Na-Acetate 0.05% Tween-20 pH 7) by a factor of 6 to obtain 150 pmoles in 100 μL injection buffer. The anaesthetized mouse (2% sevoflurane, Abbott) was injected with 100 μL of ^68Ga-labelled I-23 (˜25 MBq) and placed in a small animal PET scanner (Inveon PET, Siemens). The imaging was performed 60 min post-injection and included a 15 min transmission scan before injection and a 60 min emission scan post-injection. Scans from μPET imaging were reconstructed iteratively using the space alternating generalized expectation maximization method (SAGE, 16 subsets, 4 iterations) applying median root prior correction and were converted to standardized uptake value (SUV) images. Quantitation was accomplished using an ROI (region of interest) technique and expressed as SUVmean.
# The radiolabelling with Ga-68 was done as described before. […] Quantitation was accomplished using an ROI (region of interest) technique and expressed as SUVmean. […]
smiles,measurement,value
C[C@H](NC(=O)CN1CCN(CC(=O)O)CCN(CC(=O)O)CCN(CC(=O)O)CC1)C(=O)N[C@H]1CSCc2cc3cc(c2)CSC[C@H](NC(=O)[C@@H](C)NC(=O)[C@H](Cc2cccc4ccccc24)NC(=O)[C@H](CCC(=O)O)NC(=O)[C@H](CC(N)=O)NC(=O)[C@@H](C)NC1=O)C(=O)N[C@@H](CCC(=O)O)C(=O)N[C@@H](CC(=O)O)C(=O)N[C@@H](Cc1ccccc1)C(=O)N[C@@H](Cc1ccc(O)cc1)C(=O)N[C@@H](CC(=O)O)C(=O)N[C@@H](C(C)(C)C)C(=O)N[C@H](C(N)=O)CSC3 [I-23] ({DOTA}-AC[dA]NE[1Nal][dA]CEDFYD[Tle]C-NH2; linker 2-8-15 via TBMB),time post injection from which high imaging contrasts are seen,20 min
same,tumor uptake in μPET images,MMP-14-selective tumor uptake
